From patent US8357656B2, “Natriuretic peptide receptor-C agonists” (Mayo Foundation for Medical Education and Research, priority 2007, dated 2013)

How the values were obtained:
rat NPR-B = molecular target: T1, rat NPR-B (Rattus norvegicus, UniProt P16067); assay: cGMP production in HEK293 cells stably expressing rat NPR-B; format: cell-based; conditions: stimulated for 3 minutes, cGMP RIA (FIG. 2)
T1 construct: expressed in transfected cells; host or cells: HEK293 (293GCB cells)
T1 sequence (P16067 17-1047): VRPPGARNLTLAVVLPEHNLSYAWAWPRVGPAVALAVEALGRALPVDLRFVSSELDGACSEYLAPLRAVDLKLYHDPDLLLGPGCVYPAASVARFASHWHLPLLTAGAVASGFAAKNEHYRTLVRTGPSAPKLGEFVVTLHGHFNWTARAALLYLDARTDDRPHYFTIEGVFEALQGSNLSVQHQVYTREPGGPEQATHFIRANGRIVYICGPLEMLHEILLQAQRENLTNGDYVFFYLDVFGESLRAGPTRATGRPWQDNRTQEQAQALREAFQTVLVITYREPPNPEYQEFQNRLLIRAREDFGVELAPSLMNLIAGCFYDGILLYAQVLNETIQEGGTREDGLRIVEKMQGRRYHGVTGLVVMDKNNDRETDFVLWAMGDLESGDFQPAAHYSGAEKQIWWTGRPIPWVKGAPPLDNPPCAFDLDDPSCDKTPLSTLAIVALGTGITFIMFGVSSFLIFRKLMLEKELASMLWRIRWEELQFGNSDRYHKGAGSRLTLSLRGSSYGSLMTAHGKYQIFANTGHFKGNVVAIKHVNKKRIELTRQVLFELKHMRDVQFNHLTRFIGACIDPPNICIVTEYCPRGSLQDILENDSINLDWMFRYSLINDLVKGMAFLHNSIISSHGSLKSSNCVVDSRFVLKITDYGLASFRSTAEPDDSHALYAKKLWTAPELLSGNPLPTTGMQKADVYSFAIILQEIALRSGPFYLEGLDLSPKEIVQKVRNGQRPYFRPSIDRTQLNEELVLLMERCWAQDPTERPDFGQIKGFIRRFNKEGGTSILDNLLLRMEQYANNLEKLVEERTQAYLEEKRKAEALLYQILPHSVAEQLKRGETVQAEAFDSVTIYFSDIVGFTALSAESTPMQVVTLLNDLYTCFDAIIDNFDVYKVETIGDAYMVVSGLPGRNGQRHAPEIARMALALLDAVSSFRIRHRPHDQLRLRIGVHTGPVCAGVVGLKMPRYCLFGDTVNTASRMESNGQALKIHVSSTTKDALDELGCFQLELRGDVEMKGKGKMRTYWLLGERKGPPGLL
Method: (§1) HEK293 cells stably expressing rat NPR-A or NPR-B were prepared using methods similar to those described elsewhere (Fan et al., Mol. Pharmacol., 67:174-83 (2005); and Bryan and Potter, J. Biol. Chem., 277:16041-16047 (2002)). The cells were maintained in Dulbecco's modified Eagle's medium (DMEM) supplemented with 10% FBS, 100 units/mL penicillin, 100 μg/mL streptomycin, and 200 μg/mL G418. The cells were plated in 48-well plates and grown to 90% confluency. On the day of the assay, the cells were incubated in serum-free medium for 4 hours. The cells were pretreated for 10 minutes at 37° C. in DMEM containing 25 mM HEPES, pH 7.4 and 0.5 mM 1-methyl-3-isobutylxanthine by aspirating the starvation medium. After pretreatment, the medium was replaced with the same medium containing the indicated concentrations of natriuretic peptides. The cells were stimulated for 3 minutes with CNP, rat BNP, human BNP, ASBNP, or ASBNP.1. The reaction was stopped by aspiration of the medium and addition of 200 μL ice-cold 80% ethanol. Cyclic GMP concentrations were estimated from an aliquot of the ethanol extract using a Perkin Elmer cGMP RIA kit without acetylation as described elsewhere (Bryan and Potter, J. Biol. Chem., 277:16041-16047 (2002); and Abbey and Potter, J. Biol. Chem., 277:42423-30 (2002)).

human NPR-C = molecular target: T2, human NPR-C (Homo sapiens, UniProt P17342); assay: Binding to human NPR-C; conditions: FIG. 3
T2 sequence (P17342 27-541): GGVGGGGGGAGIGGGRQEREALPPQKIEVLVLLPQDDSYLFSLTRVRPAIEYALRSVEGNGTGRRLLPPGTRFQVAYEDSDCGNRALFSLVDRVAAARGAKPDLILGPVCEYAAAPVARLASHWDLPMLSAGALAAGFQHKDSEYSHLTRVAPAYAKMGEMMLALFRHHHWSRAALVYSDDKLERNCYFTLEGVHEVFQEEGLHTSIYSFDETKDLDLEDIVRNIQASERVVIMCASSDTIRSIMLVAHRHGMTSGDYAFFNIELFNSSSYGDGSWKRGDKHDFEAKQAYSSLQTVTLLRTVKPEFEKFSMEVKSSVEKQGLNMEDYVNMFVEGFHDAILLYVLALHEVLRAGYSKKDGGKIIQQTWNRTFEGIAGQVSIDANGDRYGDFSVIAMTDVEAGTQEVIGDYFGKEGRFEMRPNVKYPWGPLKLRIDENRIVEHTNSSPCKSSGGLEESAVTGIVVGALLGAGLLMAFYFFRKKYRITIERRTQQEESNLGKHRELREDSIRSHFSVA
Method: Human BNP and ASBNP.1 binding to human NPR-C was assessed using methods similar to those described elsewhere (Fan et al., Mol. Pharmacol., 67:174-83 (2005)).

rat NPR-A = molecular target: T3, rat NPR-A (Rattus norvegicus, UniProt P18910); assay: cGMP production in HEK293 cells stably expressing rat NPR-A; format: cell-based; conditions: stimulated for 3 minutes, cGMP RIA (FIG. 1)
T3 construct: expressed in transfected cells; host or cells: HEK293 (293GCA cells)
T3 sequence (P18910 29-1057): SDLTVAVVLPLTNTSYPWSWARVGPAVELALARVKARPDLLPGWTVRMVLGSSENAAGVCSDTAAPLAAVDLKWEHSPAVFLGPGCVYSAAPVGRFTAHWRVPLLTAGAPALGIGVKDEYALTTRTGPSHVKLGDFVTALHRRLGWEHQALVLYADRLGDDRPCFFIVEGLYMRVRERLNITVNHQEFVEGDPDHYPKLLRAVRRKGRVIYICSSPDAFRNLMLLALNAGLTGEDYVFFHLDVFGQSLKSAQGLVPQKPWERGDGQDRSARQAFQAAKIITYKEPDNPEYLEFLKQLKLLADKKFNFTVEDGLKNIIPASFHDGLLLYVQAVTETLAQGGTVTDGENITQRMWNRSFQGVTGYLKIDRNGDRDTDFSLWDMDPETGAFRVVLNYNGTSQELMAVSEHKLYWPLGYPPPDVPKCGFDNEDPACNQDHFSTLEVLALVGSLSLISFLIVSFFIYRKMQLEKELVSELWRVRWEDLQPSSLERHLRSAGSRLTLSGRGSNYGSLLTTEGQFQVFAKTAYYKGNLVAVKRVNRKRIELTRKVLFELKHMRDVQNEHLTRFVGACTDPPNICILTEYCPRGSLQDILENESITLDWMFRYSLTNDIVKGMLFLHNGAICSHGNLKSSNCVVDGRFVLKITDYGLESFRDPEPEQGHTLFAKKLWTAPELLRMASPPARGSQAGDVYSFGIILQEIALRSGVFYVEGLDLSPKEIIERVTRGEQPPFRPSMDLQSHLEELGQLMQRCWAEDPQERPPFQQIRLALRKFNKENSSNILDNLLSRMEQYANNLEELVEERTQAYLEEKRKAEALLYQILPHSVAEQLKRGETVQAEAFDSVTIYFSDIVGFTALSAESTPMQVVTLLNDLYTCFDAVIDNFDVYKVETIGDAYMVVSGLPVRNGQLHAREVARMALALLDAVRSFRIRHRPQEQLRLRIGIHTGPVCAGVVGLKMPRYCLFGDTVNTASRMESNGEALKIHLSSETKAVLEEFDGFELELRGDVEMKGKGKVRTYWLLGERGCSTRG
Method: as §1

| Substance | activation of cells expressing rat NPR-B (cGMP) (rat NPR-B) | binding to human NPR-C (human NPR-C) | activation of cells expressing rat NPR-A (cGMP) (rat NPR-A) |
| --- | --- | --- | --- |
| ASBNP.2: ASBNP.2 polypeptide, 60 amino acid residues in length with an alanine at position 43 (SEQ ID NO:3) (SPKMVQGSGCFGRKMDRISSSSGLGCKGKHPLPPRPPSPIPVADTVRVTLGFVVSGNHTL) | exhibited little, if any, activity | – | – |
| ASBNP.1: ASBNP.1 polypeptide that is 42 amino acid residues in length (SEQ ID NO:1) (SPKMVQGSGCFGRKMDRISSSSGLGCKGKHPLPPRPPSPIPV) | – | exhibited binding to human NPR-C | did not exhibit any activity |
| BNP: human BNP, natriuretic polypeptide of myocardial cell origin; main form is a 32 amino acid polypeptide with a ring structure | exhibited little, if any, activity | exhibited binding to human NPR-C | activated cells expressing rat NPR-A at concentrations in the mM range |
| C-type natriuretic peptide [CNP] | activated cells expressing rat NPR-B | – | – |
